{"source": "paper PMC12260418", "about": "(Proceedings of the National Academy of Sciences of the …, 2025)", "molecules": {"B1": {"name": "biotinylated WT VGLL4 peptide (residues 202-259) (peptide)", "peptide": "ATTCDPVVEEHFRRSLGKNYKEPEPAPNSVSITGSVDDHFAKALGDTWLQIKAAKDGA", "modifications": "also: biotinylated, position not given here"}, "B2": {"name": "Recombinant TEAD1 (S210-D426) (domain or fragment)", "chain": "SIGTTKLRLVEFSAFLEQQRDPDSYNKHLFVHIGHANHSYSDPLLESVDIRQIYDKFPEKKGGLKELFGKGPQNAFFLVKFWADLNCNIQDDAGAFYGVTSQYESSENMTVTCSTKVCSFGKQVVEKVETEYARFENGRFVYRINRSPMCEYMINFIHKLKHLPEKYMMNSVLENFTILLVVTNRDTQETLLCMACVFEVSNSEHGAQHHIYRLVKD"}}, "key": {"[1]": {"target": "TEAD1 (Homo sapiens, UniProt P28347)", "test": "SPR of recombinant TEAD1 and VGLL4 peptide with compound", "format": "binding"}, "[2]": {"target": "B2", "test": "SPR"}, "[3]": {"target": "B1", "test": "SPR"}, "[4]": {"target": "B1", "test": "SPR", "remark": "listed apart in the source"}}, "note": "Where no end group is shown, it is not given here."}
{"molecule": "GNE-7883", "values": [{"measurement": "SPR of recombinant TEAD1 and VGLL4 peptide with compound; TEAD1 AP-MS in cells", "setting": "[1]", "result": "~ 2 fold change in VGLL4-TEAD1 KD"}]}
{"molecule": "B1", "values": [{"measurement": "Kd", "setting": "[2]", "result": "~500", "unit": "nM"}]}
{"molecule": "B2", "values": [{"measurement": "fold increase in affinity with VT-103 against DMSO", "setting": "[3]", "result": "~12", "unit": "fold"}, {"measurement": "fold decrease of KD with GNE-7883 against DMSO", "setting": "[4]", "result": "~2", "unit": "fold"}]}
{"molecule": "biotinylated VGLL4 peptide (residues 202-259), TDU1 mutant (also: biotinylated, position not given here) peptide: ATTCDPVVEEAARRSLGKNYKEPEPAPNSVSITGSVDDHFAKALGDTWLQIKAAKDGA", "values": [{"measurement": "binding result", "setting": "[2]", "result": "binds"}]}
